Consider four molecules from US12097241B2, “Methods of treating kidney failure, and/or improving or stablizing renal function using modified relaxin polypeptides” (BRISTOL-MYERS SQUIBB COMPANY, priority 2017, dated 2024).

Like-named read-outs stand apart in the source and are kept apart here.

Data set [1] can be described thus: In vivo pharmacokinetic (PK) studies in rats. On the set-up: species or system Sprague-Dawley rats. As to conditions: rat; for AUC(0-inf): read-out: Rat PK AUC Total; for level at time molar at 24 h: read-out: Rat PK C24. The gist of the method: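 Male Sprague-Dawley rats (n=3) given a single 1 mg/kg IV or SC dose of relaxin constructs in 20 mM histidine, 750 mM NaCl, pH 6.0; jugular serum sampled to 72 h. Serum relaxin by ELISA; Cmax, AUCinf, C24 and half-life from non-compartmental analysis of individual profiles.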

A further data set addresses T1, human RXFP1 receptor (Homo sapiens, UniProt Q9HBX9).
T1 construct: expressed in transfected cells
T1 sequence (Q9HBX9 1-757): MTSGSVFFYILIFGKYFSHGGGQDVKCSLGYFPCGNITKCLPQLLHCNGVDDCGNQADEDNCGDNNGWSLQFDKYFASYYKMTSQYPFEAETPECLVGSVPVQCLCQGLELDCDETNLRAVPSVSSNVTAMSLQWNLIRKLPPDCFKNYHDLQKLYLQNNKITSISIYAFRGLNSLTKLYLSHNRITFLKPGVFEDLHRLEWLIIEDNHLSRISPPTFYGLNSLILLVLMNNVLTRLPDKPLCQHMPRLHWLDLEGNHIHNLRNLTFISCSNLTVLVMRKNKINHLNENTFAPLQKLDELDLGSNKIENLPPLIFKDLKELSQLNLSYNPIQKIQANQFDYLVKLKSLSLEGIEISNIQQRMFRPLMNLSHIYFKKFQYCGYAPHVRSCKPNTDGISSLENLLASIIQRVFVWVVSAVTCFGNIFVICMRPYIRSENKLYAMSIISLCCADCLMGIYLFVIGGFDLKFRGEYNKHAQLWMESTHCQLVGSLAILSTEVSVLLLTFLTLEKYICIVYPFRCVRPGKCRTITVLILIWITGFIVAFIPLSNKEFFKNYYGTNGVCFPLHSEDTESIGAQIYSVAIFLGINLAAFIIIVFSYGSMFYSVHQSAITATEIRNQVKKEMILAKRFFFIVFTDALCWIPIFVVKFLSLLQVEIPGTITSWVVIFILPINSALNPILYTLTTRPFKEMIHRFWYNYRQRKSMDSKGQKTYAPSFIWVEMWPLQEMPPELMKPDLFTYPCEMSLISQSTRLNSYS
Kind of data set: Intracellular cAMP accumulation assay. Format: cell-based. (cAMP levels reflect the balance of adenylyl cyclase and phosphodiesterase activity.)

[2] abbreviates: male, Sprague-Dawley, serum, rats, SC dose 0.8 mg/kg.
Where [3] appears, read: CHO-K1 cells stably expressing human RXFP1, 10 min at 37° C., HTRF cAMP, average, read-out: hRXFP1/CHO-K1 cAMP EC50 (nM, avg).
Where [4] appears, read: male Sprague-Dawley rats, single SC dose 1.0 mg/kg, serum ELISA.

Regarding `CC[C@H](C)[C@@H]1NC(=O)[C@H](C)NC(=O)[C@H]([C@@H](C)CC)NC(=O)[C@H](CCC(N)=O)NC(=O)[C@H](C)NC(=O)[C@H](CCCNC(=N)N)NC(=O)[C@H](C(C)C)NC(=O)[C@H](CC(C)C)NC(=O)[C@H](CCC(=O)O)NC(=O)[C@H](CCCNC(=N)N)NC(=O)CNC(=O)[C@@H](NC(=O)[C@H](CC(C)C)NC(=O)[C@H](CCCCN)NC(=O)[C@@H](NC(=O)[C@@H](NC(=O)[C@H](CCC(=O)O)NC(=O)[C@H](CCC(=O)O)NC(=O)[C@H](CCSC)NC(=O)[C@H](Cc2c[nH]c3ccccc23)NC(=O)[C@H](CO)NC(=O)[C@H](C)N)C(C)C)[C@@H](C)CC)CSSC[C@@H]2NC(=O)[C@@H](NC(=O)[C@H](CCCCN)NC(=O)[C@H](CC(N)=O)NC(=O)[C@H](C)NC(=O)[C@H](CC(C)C)NC(=O)[C@H](C)NC(=O)[C@H](CO)NC(=O)[C@H](Cc3ccc(O)cc3)NC(=O)[C@H](CC(C)C)NC(=O)[C@@H](N)Cc3ccc(C(C)=NOCCNC(=O)CNC(=O)CNC(=O)CNC(=O)CNC(=O)[C@H](CO)NC(=O)CC[C@H](NC(=O)CCCCCCCCCCCCC(=O)O)C(=O)O)cc3)CSSC[C@H](NC(=O)CNC(=O)[C@H](C(C)C)NC(=O)[C@H](Cc3c[nH]cn3)NC2=O)C(=O)N[C@@H]([C@@H](C)O)C(=O)N[C@@H](CCCCN)C(=O)N[C@@H](CCCNC(=N)N)C(=O)N[C@@H](CO)C(=O)N[C@@H](CC(C)C)C(=O)N[C@@H](C)C(=O)N[C@@H](CCCNC(=N)N)C(=O)N[C@@H](Cc2ccccc2)C(=O)N[C@H](C(=O)O)CSSC[C@@H](C(=O)NCC(=O)N[C@@H](CCSC)C(=O)N[C@@H](CO)C(=O)N[C@H](C(=O)N[C@@H](Cc2c[nH]c3ccccc23)C(=O)N[C@@H](CO)C(=O)O)[C@@H](C)O)NC1=O` [AQ1-GGGGS-Glu^γ-C13-COOH], in data set [1] (setting [2]), the AUC(0-inf) stood at 1.1 µM·h and the level at time molar at 24 h worked out at 1.52 nM. Besides, the EC50 on human RXFP1 receptor (setting [3]) was found to be 0.14 nM.
For the molecule `CC[C@H](C)[C@@H]1NC(=O)[C@H](C)NC(=O)[C@H]([C@@H](C)CC)NC(=O)[C@H](CCC(N)=O)NC(=O)[C@H](C)NC(=O)[C@H](CCCNC(=N)N)NC(=O)[C@H](C(C)C)NC(=O)[C@H](CC(C)C)NC(=O)[C@H](CCC(=O)O)NC(=O)[C@H](CCCNC(=N)N)NC(=O)CNC(=O)[C@@H](NC(=O)[C@H](CC(C)C)NC(=O)[C@H](CCCCN)NC(=O)[C@@H](NC(=O)[C@@H](NC(=O)[C@H](CCC(=O)O)NC(=O)[C@H](CCC(=O)O)NC(=O)[C@H](CCSC)NC(=O)[C@H](Cc2c[nH]c3ccccc23)NC(=O)[C@H](CO)NC(=O)[C@H](C)N)C(C)C)[C@@H](C)CC)CSSC[C@@H]2NC(=O)[C@@H](NC(=O)[C@H](CCCCN)NC(=O)[C@H](CC(N)=O)NC(=O)[C@H](C)NC(=O)[C@H](CC(C)C)NC(=O)[C@H](C)NC(=O)[C@H](CO)NC(=O)[C@H](Cc3ccc(O)cc3)NC(=O)[C@H](CC(C)C)NC(=O)[C@@H](N)Cc3ccc(C(C)=NOCCNC(=O)[C@H](CCC(=O)O)NC(=O)[C@H](CCC(=O)O)NC(=O)[C@H](CCC(=O)O)NC(=O)CNC(=O)CNC(=O)CNC(=O)CC[C@H](NC(=O)CCCCCCCCCCCCC(=O)O)C(=O)O)cc3)CSSC[C@H](NC(=O)CNC(=O)[C@H](C(C)C)NC(=O)[C@H](Cc3c[nH]cn3)NC2=O)C(=O)N[C@@H]([C@@H](C)O)C(=O)N[C@@H](CCCCN)C(=O)N[C@@H](CCCNC(=N)N)C(=O)N[C@@H](CO)C(=O)N[C@@H](CC(C)C)C(=O)N[C@@H](C)C(=O)N[C@@H](CCCNC(=N)N)C(=O)N[C@@H](Cc2ccccc2)C(=O)N[C@H](C(=O)O)CSSC[C@@H](C(=O)NCC(=O)N[C@@H](CCSC)C(=O)N[C@@H](CO)C(=O)N[C@H](C(=O)N[C@@H](Cc2c[nH]c3ccccc23)C(=O)N[C@@H](CO)C(=O)O)[C@@H](C)O)NC1=O` [AQ1-EEEGGG-Glu^γ-C13-COOH], in data set [1] (setting [4]), the AUC(0-inf) came out at 1.38 µM·h and the level at time molar at 24 h was determined as 0.29 nM. In addition, on human RXFP1 receptor (setting [3]), the EC50 was found to be 0.31 nM.
With `CC[C@H](C)[C@@H]1NC(=O)[C@H](C)NC(=O)[C@H]([C@@H](C)CC)NC(=O)[C@H](CCC(N)=O)NC(=O)[C@H](C)NC(=O)[C@H](CCCNC(=N)N)NC(=O)[C@H](C(C)C)NC(=O)[C@H](CC(C)C)NC(=O)[C@H](CCC(=O)O)NC(=O)[C@H](CCCNC(=N)N)NC(=O)CNC(=O)[C@@H](NC(=O)[C@H](CC(C)C)NC(=O)[C@H](CCCCN)NC(=O)[C@@H](NC(=O)[C@@H](NC(=O)[C@H](CCC(=O)O)NC(=O)[C@H](CCC(=O)O)NC(=O)[C@H](CCSC)NC(=O)[C@H](Cc2c[nH]c3ccccc23)NC(=O)[C@H](CO)NC(=O)[C@H](C)N)C(C)C)[C@@H](C)CC)CSSC[C@@H]2NC(=O)[C@@H](NC(=O)[C@H](CCCCN)NC(=O)[C@H](CC(N)=O)NC(=O)[C@H](C)NC(=O)[C@H](CC(C)C)NC(=O)[C@H](C)NC(=O)[C@H](CO)NC(=O)[C@H](Cc3ccc(O)cc3)NC(=O)[C@H](CC(C)C)NC(=O)[C@@H](N)Cc3ccc(C(C)=NOCCNC(=O)[C@@H](CCCCN)NC(=O)[C@@H](CCCCN)NC(=O)[C@@H](CCCCN)NC(=O)[C@@H](CCCCN)NC(=O)[C@@H](CCCCN)NC(=O)[C@@H](CCCCN)NC(=O)CC[C@H](NC(=O)CCCCCCCCCCCCC(=O)O)C(=O)O)cc3)CSSC[C@H](NC(=O)CNC(=O)[C@H](C(C)C)NC(=O)[C@H](Cc3c[nH]cn3)NC2=O)C(=O)N[C@@H]([C@@H](C)O)C(=O)N[C@@H](CCCCN)C(=O)N[C@@H](CCCNC(=N)N)C(=O)N[C@@H](CO)C(=O)N[C@@H](CC(C)C)C(=O)N[C@@H](C)C(=O)N[C@@H](CCCNC(=N)N)C(=O)N[C@@H](Cc2ccccc2)C(=O)N[C@H](C(=O)O)CSSC[C@@H](C(=O)NCC(=O)N[C@@H](CCSC)C(=O)N[C@@H](CO)C(=O)N[C@H](C(=O)N[C@@H](Cc2c[nH]c3ccccc23)C(=O)N[C@@H](CO)C(=O)O)[C@@H](C)O)NC1=O` [AQ1-dKdKdKdKdKdK-Glu^γ-C13-COOH], in data set [1] (setting [4]), the AUC(0-inf) stood at 0.0312 µM·h and the level at time molar at 24 h came out at 0.06 nM. Besides, the EC50 on human RXFP1 receptor was determined as 0.1 nM.
For `CC[C@H](C)[C@@H]1NC(=O)[C@H](C)NC(=O)[C@H]([C@@H](C)CC)NC(=O)[C@H](CCC(N)=O)NC(=O)[C@H](C)NC(=O)[C@H](CCCNC(=N)N)NC(=O)[C@H](C(C)C)NC(=O)[C@H](CC(C)C)NC(=O)[C@H](CCC(=O)O)NC(=O)[C@H](CCCNC(=N)N)NC(=O)CNC(=O)[C@@H](NC(=O)[C@H](CC(C)C)NC(=O)[C@H](CCCCN)NC(=O)[C@@H](NC(=O)[C@@H](NC(=O)[C@H](CCC(=O)O)NC(=O)[C@H](CCC(=O)O)NC(=O)[C@H](CCSC)NC(=O)[C@H](Cc2c[nH]c3ccccc23)NC(=O)[C@H](CO)NC(=O)[C@H](C)N)C(C)C)[C@@H](C)CC)CSSC[C@@H]2NC(=O)[C@@H](NC(=O)[C@H](CCCCN)NC(=O)[C@H](CC(N)=O)NC(=O)[C@H](C)NC(=O)[C@H](CC(C)C)NC(=O)[C@H](C)NC(=O)[C@H](CO)NC(=O)[C@H](Cc3ccc(O)cc3)NC(=O)[C@H](CC(C)C)NC(=O)[C@@H](N)Cc3ccc(/C(C)=N/OCCNC(=O)CNC(=O)[C@H](CO)NC(=O)[C@@H]4CCCN4C(=O)CNC(=O)[C@H](CO)NC(=O)[C@@H]4CCCN4C(=O)CC[C@H](NC(=O)CCCCCCCCCCCCCC(=O)O)C(=O)O)cc3)CSSC[C@H](NC(=O)CNC(=O)[C@H](C(C)C)NC(=O)[C@H](Cc3c[nH]cn3)NC2=O)C(=O)N[C@@H]([C@@H](C)O)C(=O)N[C@@H](CCCCN)C(=O)N[C@@H](CCCNC(=N)N)C(=O)N[C@@H](CO)C(=O)N[C@@H](CC(C)C)C(=O)N[C@@H](C)C(=O)N[C@@H](CCCNC(=N)N)C(=O)N[C@@H](Cc2ccccc2)C(=O)N[C@H](C(=O)O)CSSC[C@@H](C(=O)NCC(=O)N[C@@H](CCSC)C(=O)N[C@@H](CO)C(=O)N[C@H](C(=O)N[C@@H](Cc2c[nH]c3ccccc23)C(=O)N[C@@H](CO)C(=O)O)[C@@H](C)O)NC1=O` [AQ1-GSPGSP-Glu^γ-C14-COOH], in that order: 1.98 µM·h, 5 nM and 0.29 nM.
